Experimental data as given in patent publication US20030165997, “Zinc finger domain libraries” (published 2003).

How the values were obtained:
[1] = target: T1, Zif268 zinc finger protein (three fingers) (UniProt P08046 SEQ:1-89); test: EMSA; Zn2+, Mg2+, pH 7.7, RT; no yeast growth; 1.5-fold repression (Table 8)
[2] = target: T1, Zif268 zinc finger protein (three …); test: EMSA; Zn2+, Mg2+, pH 7.7, RT; no yeast growth; 1.2-fold repression (Table 8)
ZFP 28 VSSR-QSNR3-RDER1 = ZFP 28 VSSR-QSNR3-RDER1 (synthetic); test: cell_activity; HEK293 luciferase repression; conditions: tags: HA tag and NLS (P3 vector)
Method: (§1) The in vivo activity assay for a particular three-finger protein was carried out as follows. HEK 293 cells were transfected with four plasmids: 14 ng of a plasmid expressing the particular three-finger protein; 14 ng of the reporter plasmid described above; 70 ng of a plasmid that expresses GAL4-VP 16; and 1.4 ng of a plasmid that expresses Renillar luciferase. The GAL4-VP 16 activates transcription of the minimal synthetic promoter in the reporter so that the repression effected by a particular three-finger protein could be clearly detected and compared to other three-finger proteins. The plasmid expressing Renillar luciferase provides a control of transfection efficiency.
(§2) Lipofectamine (Gibco-BRL) was used for the transfection procedures. Cells were transfected at 30-50% confluency in wells of a 96 well plate. The cells were incubated for two days prior to harvesting for the luciferase assay. Then luciferase activities were measured using the Dual-Luciferase™ Reporter Assay System (Promega). The observed firefly luciferase activity was normalized using the observed level of Renilla luciferase. The extent of repression or “fold-repression” was calculated by dividing a value for normalized reporter expression in the absence of a zinc finger protein by a value for normalized reporter expression in the presence of the zinc finger protein.
(§3) A total of 153 three-finger chimeric proteins were constructed from both the “zinc finger protein-first” and the “target site-first” approaches. These proteins were tested using the transient cotransfection assay described in Example 68.

ZFP 12 QSSR1-QSNV2-RSNR = ZFP 12 QSSR1-QSNV2-RSNR (synthetic); test: cell_activity; HEK293 luciferase repression; conditions: tags: HA tag and NLS (P3 vector)
Method: as §1, §2, §3

ZFP 32 QSNV2-RSNR-RDHT = ZFP 32 QSNV2-RSNR-RDHT (Homo sapiens); test: cell_activity; HEK 293 luciferase; conditions: tags: HA, NLS
Method: as §1, §2, §3

ZFP 15 VSNV-CSNR1-RSNR = ZFP 15 VSNV-CSNR1-RSNR (synthetic); test: cell_activity; HEK293 luciferase repression; conditions: tags: HA tag and NLS (P3 vector)
Method: as §1, §2, §3

ZFP 34 VSSR-HSNK-RSNR = ZFP 34 VSSR-HSNK-RSNR (Homo sapiens); test: cell_activity; HEK 293 luciferase; conditions: tags: HA, NLS
Method: as §1, §2, §3

ZFP 26 QSNR3-QSNV2-RSHR = ZFP 26 QSNR3-QSNV2-RSHR (synthetic); test: cell_activity; HEK293 luciferase repression; conditions: tags: HA tag and NLS (P3 vector)
Method: as §1, §2, §3

ZFP 22 RSNR-VSSR-RSHR = ZFP 22 RSNR-VSSR-RSHR (synthetic); test: cell_activity; HEK293 luciferase repression; conditions: tags: HA tag and NLS (P3 vector)
Method: as §1, §2, §3

ZFP 30 RSHR-RSHR-QSHR2 = ZFP 30 RSHR-RSHR-QSHR2 (synthetic); test: cell_activity; HEK293 luciferase repression; conditions: tags: HA tag and NLS (P3 vector)
Method: as §1, §2, §3

ZFP 20 QSNR3-QSHR2-RSNR = ZFP 20 QSNR3-QSHR2-RSNR (synthetic); test: cell_activity; HEK293 luciferase repression; conditions: tags: HA tag and NLS (P3 vector)
Method: as §1, §2, §3

ZFP 1 RSNR-RDHT-RSNR = ZFP 1 RSNR-RDHT-RSNR (synthetic); test: cell_activity; HEK293 luciferase repression of GAL4-VP16 activated reporter; conditions: tags: HA tag and NLS (P3 vector)
Method: as §1
(§4) Lipofectamine (Gibco-BRL) was used for the transfection procedures. Cells were transfected at 30-50% confluency in wells of a 96 well plate. The cells were incubated for two days prior to harvesting for the luciferase assay. Then luciferase activities were measured using the Dual-Luciferase™ Reporter Assay System (Promega). The observed firefly luciferase activity was normalized using the observed level of Renilla luciferase. The extent of repression or “fold-repression” was calculated by dividing a value for normalized reporter expression in the absence of a zinc finger protein by a value for normalized reporter expression in the presence of the zinc finger protein. […]

[3] = target: T1, Zif268 zinc finger protein (three …); test: EMSA; Zn2+, Mg2+, pH 7.7, RT; no yeast growth; 1.3-fold repression (Table 8)
[4] = target: T1, Zif268 zinc finger protein (three …); test: EMSA; Zn2+, Mg2+, pH 7.7, RT; yeast growth ++; 5.9-fold repression (Table 8)
ZFP 29 QSNR3-RDHT-RSNR = ZFP 29 QSNR3-RDHT-RSNR (synthetic); test: cell_activity; HEK293 luciferase repression; conditions: tags: HA tag and NLS (P3 vector)
Method: as §1, §2, §3

ZFP 11 QSHT-RSHR-RDHT = ZFP 11 QSHT-RSHR-RDHT (synthetic); test: cell_activity; HEK293 luciferase repression; conditions: tags: HA tag and NLS (P3 vector)
Method: as §1, §2, §3

ZFP 25 QSNR3-RDER1-RSNR = ZFP 25 QSNR3-RDER1-RSNR (synthetic); test: cell_activity; HEK293 luciferase repression; same pair listed again as entry 61 with 1.5; conditions: tags: HA tag and NLS (P3 vector)
Method: as §1, §4

ZFP 34 VSSR-HSNK-RSNR (Homo sapiens), sequence (chain, as listed by the source): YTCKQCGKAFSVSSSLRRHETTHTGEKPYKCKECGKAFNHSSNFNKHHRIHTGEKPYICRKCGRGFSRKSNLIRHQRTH
ZFP 15 VSNV-CSNR1-RSNR (synthetic), sequence (chain, as listed by the source): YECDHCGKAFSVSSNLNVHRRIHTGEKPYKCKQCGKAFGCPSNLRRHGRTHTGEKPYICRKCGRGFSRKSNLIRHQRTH
ZFP 26 QSNR3-QSNV2-RSHR (synthetic), sequence (chain, as listed by the source): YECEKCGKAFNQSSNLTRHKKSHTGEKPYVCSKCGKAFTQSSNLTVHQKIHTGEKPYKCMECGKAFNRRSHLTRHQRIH
ZFP 11 QSHT-RSHR-RDHT (synthetic), sequence (chain, as listed by the source): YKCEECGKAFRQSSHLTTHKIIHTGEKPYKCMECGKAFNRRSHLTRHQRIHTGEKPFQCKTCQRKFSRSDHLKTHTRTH
ZFP 12 QSSR1-QSNV2-RSNR (synthetic), sequence (chain, as listed by the source): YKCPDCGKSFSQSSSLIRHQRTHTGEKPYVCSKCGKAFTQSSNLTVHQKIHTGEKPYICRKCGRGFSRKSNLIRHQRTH
ZFP 22 RSNR-VSSR-RSHR (synthetic), sequence (chain, as listed by the source): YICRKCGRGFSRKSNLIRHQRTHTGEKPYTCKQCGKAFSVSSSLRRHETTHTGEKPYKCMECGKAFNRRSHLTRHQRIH
ZFP 29 QSNR3-RDHT-RSNR (synthetic), sequence (chain, as listed by the source): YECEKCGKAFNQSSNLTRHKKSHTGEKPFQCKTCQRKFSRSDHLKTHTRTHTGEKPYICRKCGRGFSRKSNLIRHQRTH
ZFP 32 QSNV2-RSNR-RDHT (Homo sapiens), sequence (chain, as listed by the source): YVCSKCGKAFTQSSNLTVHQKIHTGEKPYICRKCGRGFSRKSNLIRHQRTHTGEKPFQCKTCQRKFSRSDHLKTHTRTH
ZFP 28 VSSR-QSNR3-RDER1 (synthetic), sequence (chain, as listed by the source): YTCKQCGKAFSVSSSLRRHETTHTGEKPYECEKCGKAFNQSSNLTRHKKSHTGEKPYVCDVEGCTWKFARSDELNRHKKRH
ZFP 1 RSNR-RDHT-RSNR (synthetic), sequence (chain, as listed by the source): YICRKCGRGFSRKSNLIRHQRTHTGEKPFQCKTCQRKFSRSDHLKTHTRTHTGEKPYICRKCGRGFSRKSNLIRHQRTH
ZFP 20 QSNR3-QSHR2-RSNR (synthetic), sequence (chain, as listed by the source): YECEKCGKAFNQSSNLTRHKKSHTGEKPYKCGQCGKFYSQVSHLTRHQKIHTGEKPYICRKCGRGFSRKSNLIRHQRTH
ZFP 25 QSNR3-RDER1-RSNR (synthetic), sequence (chain, as listed by the source): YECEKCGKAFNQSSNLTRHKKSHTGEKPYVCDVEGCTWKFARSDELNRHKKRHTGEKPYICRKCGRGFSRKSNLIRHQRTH
ZFP 30 RSHR-RSHR-QSHR2 (synthetic), sequence (chain, as listed by the source): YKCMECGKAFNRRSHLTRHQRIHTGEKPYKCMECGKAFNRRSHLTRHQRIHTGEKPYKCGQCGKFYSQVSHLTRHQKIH

B1: GCTT probe (dsDNA)
DNA 1: CCGGGTCGTGCTTGGGCGGTACCG
DNA 2: TCGACGGTACCGCCCAAGCACGAC
Q: How did the Kd [1] turn out when B1 was run?
A: 2.1 nM

B2: GACT probe (dsDNA)
DNA 1: CCGGGTCGGGACTGGGCGGTACCG
DNA 2: TCGACGGTACCGCCCAGTCCCGAC
Q: Which Kd [2] does the source give for B2 here?
A: 4.9 nM

B3: target 28 (dsDNA)
DNA 1: GCGGAAGTTC
DNA 2: GAACTTCCGC
Q: Which activity (ZFP 28 VSSR-QSNR3-RDER1) does the source give for B3 here?
A: 2 fold repression

B4: target 12 (dsDNA)
DNA 1: GAGCAAGTAG
DNA 2: CTACTTGCTC
Q: How did the activity (ZFP 12 QSSR1-QSNV2-RSNR) turn out when B4 was run?
A: 2.9 fold repression

B5: target 32 (dsDNA)
DNA 1: GGGGAGAAA
DNA 2: TTTCTCCCC
Q: With B5 as the binder, how does the activity (ZFP 32 QSNV2-RSNR-RDHT) read?
A: 1.9 fold repression

B6: target 15 (dsDNA)
DNA 1: GAGGACAATG
DNA 2: CATTGTCCTC
Q: For B6, which activity (ZFP 15 VSNV-CSNR1-RSNR) is on record?
A: 2.5 fold repression

B7: target 34 (dsDNA)
DNA 1: GAGGACGTG
DNA 2: CACGTCCTC
Q: For B7, which activity (ZFP 34 VSSR-HSNK-RSNR) is on record?
A: 1.9 fold repression

B8: target 26 (dsDNA)
DNA 1: GGGAAAGAAC
DNA 2: GTTCTTTCCC
Q: Which activity (ZFP 26 QSNR3-QSNV2-RSHR) does the source give for B8 here?
A: 2 fold repression

B9: target 22 (dsDNA)
DNA 1: GGGGTTGAG
DNA 2: CTCAACCCC
Q: With B9 as the binder, how does the activity (ZFP 22 RSNR-VSSR-RSHR) read?
A: 2.1 fold repression

B10: target 30 (dsDNA)
DNA 1: GGAGGGGGGC
DNA 2: GCCCCCCTCC
Q: Which activity (ZFP 30 RSHR-RSHR-QSHR2) does the source give for B10 here?
A: 2 fold repression

B11: target 20 (dsDNA)
DNA 1: GAGGGAGAAG
DNA 2: CTTCTCCCTC
Q: For B11, which activity (ZFP 20 QSNR3-QSHR2-RSNR) is on record?
A: 2.1 fold repression

B12: target 1 (dsDNA)
DNA 1: GAGAGGGAGC
DNA 2: GCTCCCTCTC
Q: For B12, which activity (ZFP 1 RSNR-RDHT-RSNR) is on record?
A: 8.1 fold repression

B13: ACAT probe (dsDNA)
DNA 1: CCGGGTCGGACATGGGCGGTACCG
DNA 2: TCGACGGTACCGCCCATGTCCGAC
Q: With B13 as the binder, how does the Kd [3] read?
A: 1.3 nM

B14: GAGT probe (dsDNA)
DNA 1: CCGGGTCGGGAGTGGGCGGTACCG
DNA 2: TCGACGGTACCGCCCACTCCCGAC
Q: B14 was tested. Which Kd [4] did it give?
A: 0.17 nM

B15: target 29 (dsDNA)
DNA 1: GAGTGGGAAA
DNA 2: TTTCCCACTC
Q: Which activity (ZFP 29 QSNR3-RDHT-RSNR) does the source give for B15 here?
A: 2 fold repression

B16: target 11 (dsDNA)
DNA 1: TGGGGGTGA
DNA 2: TCACCCCCA
Q: B16 was tested. Which activity (ZFP 11 QSHT-RSHR-RDHT) did it give?
A: 3 fold repression

B17: target 25 (dsDNA)
DNA 1: GAGGCGGAAA
DNA 2: TTTCCGCCTC
Q: How did the activity (ZFP 25 QSNR3-RDER1-RSNR) turn out when B17 was run?
A: 2.1 fold repression
